The values that follow are results of earlier work, collected in publication PMC7956452.

This data set has as its target RNA polymerase II CTD phosphorylated heptapeptide (Homo sapiens).

Regarding PQBP-1 (from UniProt O60828), the Kd was 154 µM.
